Assay results from publication PMC7393355, “A FRET-based screening method to detect potential inhibitors of the binding of CNNM3 to PRL2” (Scientific Reports, 2020).
Residue numbers refer to the chain shown, from its start. In names and notes the source's numbering stands.

B1: PRL1: purified non-fluorescence protein-tagged human PRL1 (protein)
chain: MARMNRPAPVEVTYKNMRFLITHNPTNATLNKFIEELKKYGVTTIVRVCEATYDTTLVEKEGIHVLDWPFDDGAPPSNQIVDDWLSLVKIKFREEPGCCIAVHCVAGLGRAPVLVALALIEGGMKYEDAVQFIRQKRRGAFNSKQLLYLEKYRPKMRLRFKDSNGHRNNCCIQ
B2: PRL2: purified non-fluorescence protein-tagged human PRL2 (residues 1–167) (protein)
chain: MNRPAPVEISYENMRFLITHNPTNATLNKFTEELKKYGVTTLVRVCDATYDKAPVEKEGIHVLDWPFDDGAPPPNQIVDDWLNLLKTKFREEPGCCVAVHCVAGLGRAPVLVALALIECGMKYEDAVQFIRQKRRGAFNSKQLLYLEKYRPKMRLRFRDTNGHCCVQ
modifications: left off: His tag (from the vector pET28a and the Ni-NTA purification), end not stated, state not stated
B3: non-YPet-tagged CNNM3: purified non-fluorescence-tagged CBS domain of human CNNM3 (protein)
chain: YSDLSKGVLRCRTVEDVLTPLEDCFMLDASTVLDFGVLASIMQSGHTRIPVYEEERSNIVDMLYLKDLAFVDPEDCTPLSTITRFYNHPLHFVFNDTKLDAVLEEFKRGKSHLAIVQKVNNEGEGDPFYEVLGLVTLEDVIEEIIRSEILDE
modifications: left off: His tag (from the vector pET28a and the Ni-NTA purification), end not stated, state not stated
B4: CNNM3 CBS domain D426A mutant: CNNM3 CBS domain with D426A mutation at the PRL2-binding site (protein)
chain: B3 chain with D126A
modifications: left off: His tag (from the vector pET28a and the Ni-NTA purification), end not stated, state not stated

Test system: binding of CNNM3-YPet and CyPet-PRL2 (CNNM3-PRL2 complex)
Experiment: FRET-based inhibition test of the binding of CNNM3-YPet and CyPet-PRL2
Set-up: species or system human
Conditions: CNNM3-YPet 200 nM, CyPet-PRL2 200 nM, n = 6; for FRET intensity abolished / inhibition of complex formation: pre-incubated 20 min R.T. with binding partner, TBS pH 8.0, mean
Procedure: FRET measurements were conducted in TBS (50 mM Tris–HCl (pH 8.0) and 150 mM NaCl). Proteins were mixed in 96-well plates and incubated at R.T. for 1 h. Fluorescence intensities were measured using an excitation wavelength of 435 nm and an emission wavelength of 530 nm with a Cytation 3 (BioTek).
The emission spectra were measured with each component at 200 nM using the Cytation 3 (BioTek) with 435 nm excitation (Supplementary Fig. 2), and the original data are shown in Supplementary Table 1. The FRET intensity was calculated by Eq. (1).1 IFRET=IA-raw-Dleakage-Adirect where IA-raw is the intensity measured at 530 nm with 435 nm excitation, Dleakage is the leakage of the donor emission into the acceptor wavelength (530 nm) upon donor excitation, and Adirect is the direct excitation of the acceptor with the donor wavelength (435 nm).
The inhibition of complex formation was assayed by pre-incubating the binding partner (200 nM) with inhibitory factors (1, 10 μM) for 20 min at R.T., followed by addition of the other protein (200 nM) (Figs. 3B, 4C). The effects of divalent cations (10 mM) and nucleotides (3 mM) were also assayed similarly (Fig. 5).
The peptides for the peptide inhibition test were synthesized by Shanghai Dechi Biosciences (Fig. 6C,D). The peptide sequences were as follows: peptide 1, IVQKVNNEGEGDPFYEVLG; peptide 2, […] (an S–S bond was formed between the cysteine residues, as verified by HPLC and mass spectrometry). The peptides were dissolved in TBS buffer at 10 mM before use.
FRET data were evaluated by subtracting backgrounds (fluorescence intensities of CyPet-PRL2, CNNM3-YPet and a blank well). All data analysis was performed using GraphPad Prism 6 (GraphPad Software) with the methods described in each legend.

Molecule | FRET intensity abolished / inhibition of complex formation (inhibitory protein 1 μM) | FRET intensity abolished / inhibition of complex formation (inhibitory protein 10 μM) | effect of added protein on FRET intensity (in words) (inhibitory protein 1 and 10 μM)
B1 | 61.6% | 90.0% | –
B2 | 85.5% | 89.7% | –
B3 | 77.7% | 89.2% | –
B4 | – | 12.9% | little effect on the FRET intensity
